Source: publication PMC9319256, “Human Enzyme PADI4 Binds to the Nuclear Carrier Importin α3” (Cells, 2022)
pKd: −log10 of the molar value.

Tests used:
[1] = biological target: ΔImpα3, truncated importin α3 lacking the importin β-binding (IBB) domain (human); test: BLI; BLItz; His-tagged Impα3 or ΔImpα3 immobilised on His-tag biosensors at 0.3 µM; peptides 1-7 µM; manufacturer's buffer; 25 °C; pseudo-first-order plots; apparent
[2] = biological target: human importin α3 (Impα3), intact (human); test: as above
[3] = biological target: NLS1-PADI4 peptide (human); test: translational diffusion NMR (DOSY); 100 µM peptide; 100 mM sodium phosphate, pH 7.0; 10 °C; dioxane as reference
[4] = biological target: human importin α3 (Impα3), intact (human); test: ITC; PADI4 or peptide (100 µM) in the syringe titrated into importin (10 µM) in the cell; 20 mM Tris pH 7.5, 5 mM TCEP, 150 mM NaCl, 5% glycerol; 25 °C; single-site model
[5] = biological target: ΔImpα3, truncated importin α3 lacking the importin β-binding (IBB) domain (human); test: as above
[6] = biological target: human importin α3 (Impα3), intact (human); test: as above; remark: listed apart in the source
[7] = biological target: PADI4 (peptidyl-arginine deiminase 4), intact (human) (UniProt Q9UM07); test: other fluorescence titration; importin species 0-25 µM added to 3 µM PADI4; 20 mM Tris pH 7.5, 5 mM TCEP, 150 mM NaCl, 5% glycerol; 25 °C; fluorescence at 330 nm
Chain of PADI4 (peptidyl-arginine deiminase 4), intact (human) (Q9UM07 whole entry): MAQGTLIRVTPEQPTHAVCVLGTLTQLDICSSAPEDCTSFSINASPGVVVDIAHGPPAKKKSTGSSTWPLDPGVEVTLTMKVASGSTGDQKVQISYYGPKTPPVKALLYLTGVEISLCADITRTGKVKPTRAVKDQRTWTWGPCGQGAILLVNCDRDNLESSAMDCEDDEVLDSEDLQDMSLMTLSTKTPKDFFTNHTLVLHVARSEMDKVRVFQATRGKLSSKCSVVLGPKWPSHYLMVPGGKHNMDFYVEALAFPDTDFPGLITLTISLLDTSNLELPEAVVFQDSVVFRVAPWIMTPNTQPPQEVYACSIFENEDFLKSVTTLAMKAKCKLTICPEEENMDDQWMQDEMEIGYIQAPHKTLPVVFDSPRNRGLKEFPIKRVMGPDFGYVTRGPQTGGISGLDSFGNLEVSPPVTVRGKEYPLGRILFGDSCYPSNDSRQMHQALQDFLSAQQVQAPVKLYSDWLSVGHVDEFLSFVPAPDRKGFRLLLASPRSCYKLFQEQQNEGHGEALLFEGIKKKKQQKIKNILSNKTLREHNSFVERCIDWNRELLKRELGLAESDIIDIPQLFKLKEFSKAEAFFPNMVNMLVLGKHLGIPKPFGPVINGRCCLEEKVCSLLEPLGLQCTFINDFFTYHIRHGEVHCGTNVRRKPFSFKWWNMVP

Chain of PADI4 (peptidyl-arginine deiminase 4), intact (Q9UM07 whole entry): as above

pKd [1] | koff [1] | kon [1] | pKd [2] | koff [2] | kon [2] | stoichiometry N [3] | pKd [4] | Ka [5] | pKd [5] | dH [5] | stoichiometry N [5] | Ka [6] | pKd [6] | dH [6] | stoichiometry N [6] | pKd [7] | Substance
5.40 | 0.046 s⁻¹ | 11000 M⁻¹ s⁻¹ | 4.74 | 0.0685 s⁻¹ | 3700 M⁻¹ s⁻¹ | 6 | 5.36 | 650000 M⁻¹ | 5.82 | -8.7 kcal/mol | 1.22 | 230000 M⁻¹ | 5.37 | -21.3 kcal/mol | 1.24 | – | NLS1-PADI4 peptide
– | – | – | – | – | – | – | – | 780000 M⁻¹ | 5.89 | -38.4 kcal/mol | 0.84 | 210000 M⁻¹ | 5.32 | -65.5 kcal/mol | 0.97 | – | PADI4 (peptidyl-arginine deiminase 4), intact (from UniProt Q9UM07 1-663) (enzyme)
– | – | – | – | – | – | – | – | – | – | – | – | – | – | – | – | 5.41 | human importin α3 (Impα3), intact (natural protein)
– | – | – | – | – | – | – | – | – | – | – | – | – | – | – | – | 5.22 | ΔImpα3, truncated importin α3 lacking the importin β-binding (IBB) domain (domain or fragment)
